For three molecules, A450 results are on record in patent publication US20060286609A1 (BIOCHECK, published 2006).

Where a chain is given by its changes, count along the chain named.

The target in assay [1] is T1, Mouse Id1: Histidine (mouse, UniProt P20067-2 1-148).
T1 construct: E. coli fusion protein (vector pGW07); also called m-Id1-His; not shown: His-tag
T1 sequence: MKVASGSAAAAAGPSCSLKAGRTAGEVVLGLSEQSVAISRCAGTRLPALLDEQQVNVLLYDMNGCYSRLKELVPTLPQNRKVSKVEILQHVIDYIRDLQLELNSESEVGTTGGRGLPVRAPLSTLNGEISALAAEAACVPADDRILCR
Nature of the assay: ELISA, coated antigen, Ab 0.005 ug/ml.

The target in assay [2] is Human Id1: Histidine (human) (UniProt P41134). Nature of the assay: ELISA, coated antigen, Ab 0.005 ug/ml.
Assay [3] deals with T2, Mouse Id4: Histidine (mouse, UniProt P41139 1-161, limits assumed).
T2 construct: E. coli fusion protein (vector pGW07); also called m-Id4: His; not shown: His-tag
T2 sequence (looked up): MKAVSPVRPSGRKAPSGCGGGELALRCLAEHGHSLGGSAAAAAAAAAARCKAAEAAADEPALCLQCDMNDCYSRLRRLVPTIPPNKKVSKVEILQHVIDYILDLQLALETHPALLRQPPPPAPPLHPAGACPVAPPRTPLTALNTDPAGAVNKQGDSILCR
Nature of the assay: ELISA, coated antigen, Ab 0.005 ug/ml.

Assay [4] concerns the target T3, Mouse Id2: Histidine (mouse, UniProt P41136 1-134, limits assumed).
T3 construct: E. coli fusion protein (vector pGW07); also called m-Id2: His; not shown: His-tag
T3 sequence (looked up): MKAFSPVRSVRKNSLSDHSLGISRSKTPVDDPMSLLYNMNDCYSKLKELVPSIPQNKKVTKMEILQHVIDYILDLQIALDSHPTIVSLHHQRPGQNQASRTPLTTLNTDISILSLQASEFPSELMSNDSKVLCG
Nature of the assay: ELISA, coated antigen, Ab 0.005 ug/ml.

In assay [5] the target is T4, Human Id2: Histidine (human, UniProt Q02363 1-134, limits assumed).
T4 construct: E. coli fusion protein (vector pGW07); also called h-Id2: His; not shown: His-tag
T4 sequence (looked up): T3 sequence (looked up) with T60S, V131A
The assay is described as follows: ELISA, coated antigen, Ab 0.005 ug/ml.

The target in assay [6] is T5, Human Id4: Histidine (human, UniProt P47928 1-161, limits assumed).
T5 construct: E. coli fusion protein (vector pGW07); also called h-Id4: His; not shown: His-tag
T5 sequence (looked up): T2 sequence (looked up) with L125H, A130T, V133A
Nature of the assay: ELISA, coated antigen, Ab 0.005 ug/ml.

The target of assay [7] is T6, Mouse Id3: Histidine (mouse, UniProt P41133 1-119, limits assumed).
T6 construct: E. coli fusion protein (vector pGW07); also called m-Id3: His; not shown: His-tag
T6 sequence (looked up): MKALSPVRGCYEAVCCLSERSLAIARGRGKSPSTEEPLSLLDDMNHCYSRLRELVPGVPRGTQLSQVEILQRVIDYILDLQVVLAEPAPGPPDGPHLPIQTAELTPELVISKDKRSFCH
Nature of the assay: ELISA, coated antigen, Ab 0.005 ug/ml.

Assay [8] addresses T7, Human Id3: Histidine (human, UniProt Q02535 1-119, limits assumed).
T7 construct: E. coli fusion protein (vector pGW07); also called h-Id3: His; not shown: His-tag
T7 sequence (looked up): T6 sequence (looked up) with S31G, S33A, T34A, K112N
The assay is described as follows: ELISA, coated antigen, Ab 0.005 ug/ml.

Assay [9] concerns the target Human Id1: Histidine (human) (UniProt P41134). Nature of the assay: ELISA, coated antigen, Ab 0.000 ug/ml (blank, diluent only).
The target in assay [10] is T2, Mouse Id4: Histidine. Described as above.
Assay [11] concerns the target T3, Mouse Id2: Histidine. The description is as above.
In assay [12] the target is T1, Mouse Id1: Histidine. The assay is described as follows: ELISA, coated antigen, Ab 0.500 ug/ml.
In assay [13] the target is Human Id1: Histidine (human) (UniProt P41134). The assay is described as follows: ELISA, coated antigen, Ab 0.500 ug/ml.
For assay [14], the target named is T2, Mouse Id4: Histidine. The assay is described as follows: ELISA, coated antigen, Ab 0.500 ug/ml.
The target of assay [15] is T3, Mouse Id2: Histidine. Nature of the assay: ELISA, coated antigen, Ab 0.500 ug/ml.
For assay [16], the target named is T4, Human Id2: Histidine. The assay is described as follows: ELISA, coated antigen, Ab 0.500 ug/ml.
Assay [17] addresses T5, Human Id4: Histidine. The assay is described as follows: ELISA, coated antigen, Ab 0.500 ug/ml.
Assay [18] addresses T6, Mouse Id3: Histidine. The assay is described as follows: ELISA, coated antigen, Ab 0.500 ug/ml.
Assay [19] addresses T7, Human Id3: Histidine. The assay is described as follows: ELISA, coated antigen, Ab 0.500 ug/ml.
The target in assay [20] is Human Id1: Histidine (human) (UniProt P41134). Nature of the assay: ELISA, coated antigen, Ab 0.100 ug/ml.
Assay [21] has the same target. Nature of the assay: ELISA, coated antigen, Ab 0.250 ug/ml.
The target is the same in assay [22]. The assay is described as follows: ELISA, coated antigen, Ab 0.010 ug/ml.
Assay [23] shares this target. The assay is described as follows: ELISA, coated antigen, Ab 0.050 ug/ml.
Assay [24] has the same target. Nature of the assay: ELISA, coated antigen, Ab 0.025 ug/ml.

Chain of Human Id1: Histidine (human) (P41134 whole entry): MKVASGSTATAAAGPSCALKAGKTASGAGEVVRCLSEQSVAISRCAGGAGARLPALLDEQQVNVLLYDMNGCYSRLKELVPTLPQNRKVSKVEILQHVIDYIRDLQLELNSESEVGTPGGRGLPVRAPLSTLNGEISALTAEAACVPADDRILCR

For the molecule “rabbit monoclonal anti-mouse/human Id1, clone #BCH-1/#195-14 (antibody)”, the A450 in the assay with Mouse Id1: Histidine [1] is 0.249 A450; in assay [2], 0.31 A450; in the assay with Mouse Id4: Histidine [3], 0.047 A450; with Mouse Id2: Histidine [4], 0.052 A450; with Human Id2: Histidine [5] it was 0.048 A450; with Human Id4: Histidine [6], 0.044 A450. The A450 with Mouse Id3: Histidine [7] was 0.048 A450; with Human Id3: Histidine [8], 0.047 A450; in assay [9], 0.05 A450; with Mouse Id4: Histidine [10], 0.047 A450; with Mouse Id2: Histidine [11] it was 0.051 A450; with Mouse Id1: Histidine [12], 2.79 A450. For the same molecule, the A450 was found to be 3.02 A450 in [13]; 0.049 A450 with Mouse Id4: Histidine [14]; 0.057 A450 with Mouse Id2: Histidine [15]; 0.072 A450 with Human Id2: Histidine [16]; 0.048 A450 with Human Id4: Histidine [17]; 0.051 A450 in the assay with Mouse Id3: Histidine [18]. The A450 worked out at 0.053 A450 in the assay with Human Id3: Histidine [19]; 2.17 A450 in assay [20]; 2.88 A450 in [21]; 0.569 A450 in [22]; 1.7 A450 in assay [23]; 1.12 A450 in assay [24].
For the molecule “rabbit monoclonal anti-human Id1, clone #BCH-2/#5-3 (antibody)”, the A450 with Mouse Id1: Histidine [1] was determined as 0.063 A450; in assay [2], 0.209 A450; in the assay with Mouse Id4: Histidine [3], 0.045 A450; in the assay with Mouse Id2: Histidine [4], 0.048 A450; with Human Id2: Histidine [5], 0.049 A450; with Human Id4: Histidine [6] it was 0.049 A450. The A450 came out at 0.047 A450 with Mouse Id3: Histidine [7]; 0.048 A450 with Human Id3: Histidine [8]; 0.052 A450 in assay [9]; 0.045 A450 with Mouse Id4: Histidine [10]; 0.051 A450 with Mouse Id2: Histidine [11]; 0.151 A450 with Mouse Id1: Histidine [12]. The A450 amounted to 3.15 A450 in assay [13]; 0.05 A450 with Mouse Id4: Histidine [14]; 0.049 A450 with Mouse Id2: Histidine [15]; 0.062 A450 with Human Id2: Histidine [16]; 0.056 A450 in the assay with Human Id4: Histidine [17]; 0.05 A450 in the assay with Mouse Id3: Histidine [18]. In addition, the A450 was found to be 0.052 A450 with Human Id3: Histidine [19]; 1.86 A450 in assay [20]; 2.76 A450 in assay [21]; 0.362 A450 in [22]; 1.22 A450 in assay [23]; 0.728 A450 in assay [24].

B1: rabbit monoclonal anti-mouse Id1, clone #BCH-1/#37-2 (antibody, V domains shown)
VH: QSVEESGGRLVTPGTPLTLTCKVSGFDINSYAMDWFRQAPGKGLEWIGMMSTRGNTYYTSWAKGRFTISKTSSTTVDLKMTSLTTEDTATYFCARGGLWGPGTLVTVSS
VL: RVLTQTASPVSAAVGGTVTINCQASQSVYNGNRLGWYQLKPGQSPKELIHDASTLASGVPSRFRGSGSGTQFTLTINDVQCDDAATYYCVGSYACSTGDCNVFGGGTEVVVK
notes: Rabbit IgG from hybridoma, Protein G purified; also called m Id1 MoAb 37-2; Rabbit Monoclonal Anti-Mouse Id1 (#37-2)
Regarding B1, the A450 in assay [2] came to 0.057 A450; in [9], 0.051 A450; in [13], 0.27 A450; in [20], 0.117 A450; in assay [21], 0.187 A450; in [22] it was 0.056 A450. The A450 in [23] is 0.092 A450; in assay [24], 0.073 A450.
